Assay results reported in paper PMC6676471.
Where no end group is shown, it is not given here. [ ]: non-standard residue; d: D form. 2Abz = Nc1ccccc1C(=O)O

Biological target: tcFGE_(W228F), inactive variant of formylglycine generating enzyme from Thermomonospora curvata (Thermomonospora curvata) (UniProt D1A7C3)
Assay: ITC

UniProt D1A7C3, sequence (D1A7C3 20-303 W228F): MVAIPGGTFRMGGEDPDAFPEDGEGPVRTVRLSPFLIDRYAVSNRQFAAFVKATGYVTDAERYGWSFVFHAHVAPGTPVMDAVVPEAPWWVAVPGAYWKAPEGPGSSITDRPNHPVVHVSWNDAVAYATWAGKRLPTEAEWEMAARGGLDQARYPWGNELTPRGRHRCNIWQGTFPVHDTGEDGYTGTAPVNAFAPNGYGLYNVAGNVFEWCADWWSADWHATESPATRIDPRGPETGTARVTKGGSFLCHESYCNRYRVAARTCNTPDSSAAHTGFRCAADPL

Kd: 40 nM
Binder: [2Abz]ATTPLCGPSRASILSGR [FGE-27: Abz-…]
